The values that follow come from the supplement of paper PMC12636428.

The data set has as its system Saccharomyces cerevisiae. The data set is described as follows: transcriptional activation domain activity (GFP:mCherry ratio, weighted mean of sorted bins, harmonized to initial dataset scale) (arbitrary fluorescence ratio units); higher = stronger transcriptional activation. The following applies: beta-estradiol 1 µM; induction time 4 h. The method, boiled down:
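For this assay, yeast diploids with a GFP reporter carried barcoded protein tiles at URA3, each fused to an estradiol-inducible synthetic transcription factor. Induction was a 1:5 dilution into SC with 1 uM beta-estradiol for 4 hours at 30 °C, followed by sorting into 8 bins by GFP:mCherry ratio and barcode sequencing. Tiles under 50 reads were dropped, and activation activity was calculated as the read-weighted mean of bin median fluorescence, averaged across barcodes and linearly mapped onto the initial dataset scale.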

As for “RAPRTSPHQHKPAPVPAAALARTSPHPRQHQHQHASRAPPAASPHPRQHQEHQ”, the “transcriptional activation domain activity” value worked out at 31300.
Then “RARAHRPKRGGRGRGRGTGTNAREGGGREEGKKKNRKKKTKTKTKTKTKTKKR”, with 36600; and “RARCIPSAPTRRPLTRSTSTCRRPPRTTGSCWTSSRPSSTPKTSSSAAKPAPC”, with 46200; and “RARRNSDSSIIDKAAQEKEDRRRRERRREREREEKDRDGKSSSTRKVRKPQGL”, with 26200.
With “RASAAVPRRRDSTDSSDSEGDIRAAMAAARRKQAKVPAPRPVVENRPAPANTP”, the “transcriptional activation domain activity” value came out at 36300.
Then “RASEASVGTEGATDIPGDEKKKKRAPRKKPGEEENEAGRGKGRKRKGTNESSA”, with 36200.
Take “RASHNASGFPNFLDTSCSSSFDDHFIFTNNLPFLNNNSINNNHSHNSSHNNNS”: the “transcriptional activation domain activity” value was found to be 56800.
Take “RASTTSPTCSGTSTSARGRGAACSRGASTSGRCTRSSRRTRGSRSGTATSTTR”: the “transcriptional activation domain activity” value worked out at 33600.
On to “RAVAVLRRGDFAGAGGGGGSGAGGGKRRKEKEKEEQEERRRRPAVASRAVKDL”, for which the “transcriptional activation domain activity” value was determined as 57500.
“RAVDNSKWWLLGDSFETDVLTFVSLFQFVNAALIFNYGYLFRDRWYRNYLLLV”: the “transcriptional activation domain activity” value was 47900.
Turning to “RAYGCEAAFITVLQEKINHYTRCARVFYNLNRWVAVRLELLSSLFTTALAAYL”, the “transcriptional activation domain activity” value came to 63400.
The figure for “RAYGLLKRYILVPATFGYRCAQNIGWCTIPPRVQSLTIFAFVILNLILCCISY” is 58000; for “RAYQQPILEYCRDAIDKESATTLSDERTVSKDDAEAKYSRVISACISLLASLL” it is 30600; for “RCANARIVWGARVVGVGGQGEGEAKAWVDVEMAGEEGAKRVERREADFVVGCD” it is 37600.
The figure for “RCFSFLFLGCHYDTDWGFGFCCLFVINCRFNFCIFFLSLFSSFFVLVSFFLLY” is 58800.
The figure for “RCGILLGSKNDGEGVDFVRVRGERIERGSSASIEEGIGEMGRSRPVRFGGGEE” is 21500; for “RCKHSDCQELSPFASVFDLIDHYDHTHAFIPETLVKYSYIHLYKPSVWDLFEY” it is 157000.
In the case of “RCLVLFLWALDTIHFAFTSHGLYFYLVTSFGDFAVLLSPTWTILAQVYVTNLS”, the “transcriptional activation domain activity” value was 50100.
Then “RCMVIYRSSGFFFWAIVLLPCLMFLASFSESLFQYISSPSFTVTVRLGLGILF”, with 63200; and “RCPAARLASSAPSAPPTPASASRTCPRPPRPSPRRTSSKSCSTRSSSASATPR”, with 48000; and “RCQAVTVSDEVYSKLRCSSGHSGSGLLFMLIWIRIWKTLVIAYSGFSWREYLY”, with 88100.
Then “RCSIIYAGCHCPMWMVLFVPGCLFGLSVALGTLWLVQASDMLFPHTNYILIYI”, with 46700; and “RCWFILLYVMPNIAGTFGLRYVPLQNHVARLWCYYLTGPYNASFVLTLSLVIA”, with 37400.
Then “RDAEKGKEKRRSRSKNRDEKMEHAEEATGGEPSREHKADSGKKSRRSSIKKSS”, with 29500; and “RDAKERGEGKRKREERDSRRSERGEEDGKRRRESSADRDPDRKRSRRRRKDRD”, with 40900.
In the case of “RDALSGDPTAPRKRSKVSRACDECRRKKIRCDASSESGIEQCSSCKRVGSKCS”, the “transcriptional activation domain activity” value worked out at 43500.
The figure for “RDANQCLELYPDIRILLVRLLEYPELMVITPIRMAIRCGLLYFSHLGSDRPQA” is 58800; for “RDARARRTRERRRGRAERAPEEGRREERRKRGRGARGGRARGGAAGRGGRGEG” it is 32200.
For “RDCQWCAQLVRRTAIVAFNATNAVLNANMYVFVCIFLIAWLVVWKTWLWSVAL”, the “transcriptional activation domain activity” value came to 38300.
Then “RDDDAEEDKEEVPKKKNRKGQEVGGEAGKRVEEEEEEEAPKRKKKKAKAAAAD”, with 13400; and “RDDGDDDDGDDHDEEREDGGTRGEGRRRGEKGGREGEAARAEVHEASAEAEAG”, with 16300.
In the case of “RDDGRRRNEKPQRSKNKGTSSTGSDKKKTTEKKSSSSRKTSGSQVDKKLSSKK”, the “transcriptional activation domain activity” value came out at 37900.
For the sequence “RDEAGGGARRESKKAGARRGRTAEKRGGRGHEGRRQEGGKATKAEGGAEGEGE”, the “transcriptional activation domain activity” value was determined as 46500.
The figure for “RDESLRTKDKSVSRSRSRSRARDEETDDRRERSRSADRESRREGRGRSATPQG” is 34800; for “RDGMRQGTHSTKGRADVRGSTRKAAPQKGRGRARMGSLRAPHIRGGGIAFGPK” it is 24000.
The figure for “RDKDDRRRHRDRDDQSSRSHRHHRHRDGDSDRDGDGHRHKRSRHSKAEEAKPS” is 28800.
Then “RDKKKARAKGGAGAAGGEKKAEGAAAGDAAAAADGEDEEREGKRRKIARAAEG”, with 42200.
On to “RDMLIDTYLTPENLYDVHGPGVPVKTLEIATALVDIVGQYDHNMKLEAWNVLH”, for which the “transcriptional activation domain activity” value worked out at 50000.
Then “RDNESYSATNNNNLLRPDDNDYNNEALSDIDRSFEDIINGRKLKLKKSRRRSS”, with 15300.
With “RDNSFLHALIHRFHEVHIVAWCIEKVNFMYLHPGVPFYVLCDCTRGPAIMVLH”, the “transcriptional activation domain activity” value was 51300.
For the sequence “RDRGDSHRRHHHRSGSDDERRHRSDRRAREKDGDRSRSHRSSRHADEREERDE”, the “transcriptional activation domain activity” value amounted to 17600.
The figure for “RDRGGERDSKPRKTSGSSSNSQHADRGDTRSQKSSRRRRSSRSEHGGETSQHH” is less than 6570; for “RDRKKRKVDGSEDSDDSDDDGTRGKGRGKSKSKGKGKSKEKKKKSSRKSKKAE” it is less than 6570; for “RDRRRRSRSRSRDRRNKRRRRELEDRSKRRRSKSRVKNEETSEAEKRGRRRKP” it is 37900.
The figure for “RDSKTDVEAEVEAAEKDEKKGKKRKRAEVVAAEESAEARKGKSKKSSRKGKEV” is 34100.
Turning to “RDVFLGILHRNWFNRVWILQEVASARAAVVFCGRNSISTRIFTRLPLLFDITP”, the “transcriptional activation domain activity” value is 68000.
For “RDVYYILHWVVAFTLVRATVMYKMLEPFIKWYGVRSQHKIMRFGEQGWLTIYY”, the “transcriptional activation domain activity” value was determined as 59800.
Then “RDWRYVPEYVMRICRAHHADKPSVQMLVRKCFLEHIVNLTFTSFKALMSSKMS”, with 42700.
The figure for “REAAGRERGERGRDNARGAGEREQPGRVRARLRGGRGKAREGEEGSCVRSAAP” is 22900.
Then “REARRHADEEARRRQARQEARRHADEEARRRQEEELARQEARRHADEEARRRQ”, with 27000.
On to “REDRQRKQQREKERAAREAEGTQRRRRKRRRTNGGAKTEEGEEENDGEEEEDG”, for which the “transcriptional activation domain activity” value was 52800.
Then “REEAERKAREEEAERKAARGRGEESEGRARKAGARRARGTPRGGKAGTRRGGE”, with 43000; and “REFRVVEEEEEEEEEEEEEEEEEEEEDEEEGGLGGESVEEGGRRDKGKGVVKE”, with 20100; and “REGEERERDGRRTSTGRRARGKGRRSRRKEGKRENRKERERKEGKEGPGQRRR”, with 26700.
The figure for “REGEGRGERGREGAGRERGGGKGVGGGEGGGERTIRLKGRKGDSNETTRRKEE” is 31700.
